Assay [1] addresses FcRn (cells of the occupancy assay not stated) (UniProt P55899). The assay is described as follows: FcRn occupancy assay, cells not given.
The target in assay [2] is FcRn-L322A/L323A expressed in HEK293 cells (human) (UniProt P55899). The assay is described as follows: FcRn occupancy, FACS, HEK293-FcRn-mut cells, with albumin.
Assay [3] addresses neonatal Fc receptor (FcRn), endogenous in U937 cells (human) (UniProt P55899). The assay is described as follows: cell-based FcRn occupancy assay on U937 cells, flow cytometry; free FcRn stained with anti-FcRn-Fab AF647.
Assay [4] deals with FcRn-L322A/L323A expressed in HEK293 cells (human) (UniProt P55899). Kind of assay: FcRn occupancy, FACS, HEK293-FcRn-mut cells, without albumin.
For assay [5], the target named is neonatal Fc receptor (FcRn), endogenous in U937 cells (human) (UniProt P55899). The assay is described as follows: FcRn occupancy, FACS, U937 cells, with albumin.

The term pIC50 denotes the IC50 on a negative log10 scale, so that one unit is a factor of ten. High values mean a low IC50, low ones a high IC50.

pIC50: −log10 of the molar value.

neonatal Fc receptor (FcRn), endogenous in U937 cells (human), sequence (P55899 24-365 limits assumed, chain 1 of 2): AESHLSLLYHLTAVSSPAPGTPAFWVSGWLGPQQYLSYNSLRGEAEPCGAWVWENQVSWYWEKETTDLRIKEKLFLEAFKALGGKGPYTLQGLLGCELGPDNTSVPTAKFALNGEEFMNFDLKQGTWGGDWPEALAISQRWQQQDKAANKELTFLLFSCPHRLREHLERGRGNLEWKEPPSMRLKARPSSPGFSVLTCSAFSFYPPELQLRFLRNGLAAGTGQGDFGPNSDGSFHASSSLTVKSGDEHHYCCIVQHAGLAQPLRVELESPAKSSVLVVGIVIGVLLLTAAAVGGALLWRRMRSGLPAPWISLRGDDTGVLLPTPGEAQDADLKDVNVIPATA
neonatal Fc receptor (FcRn), endogenous in U937 cells (human), sequence (chain, as listed by the source limits assumed, chain 2 of 2): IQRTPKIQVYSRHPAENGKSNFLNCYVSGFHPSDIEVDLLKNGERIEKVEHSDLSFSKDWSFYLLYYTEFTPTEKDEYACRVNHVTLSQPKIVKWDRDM

For the substance efgartigimod, the pIC50 in assay [1] is 8.22; in assay [2] it was 7.79; in assay [4] it was 8.17; in assay [5] it was 8.32. In addition, the % max occupancy amounted to 57.7% in assay [2] and 56.8% in assay [5]. The substance also gave an IC50 (read off the curve) in assay [3] of 0.3 nM.

These data come from patent US20260152573A1.
